Earlier results, collected in publication PMC10162908.

Target: EED (Homo sapiens) (UniProt O75530)
UniProt O75530, sequence (O75530 2-441): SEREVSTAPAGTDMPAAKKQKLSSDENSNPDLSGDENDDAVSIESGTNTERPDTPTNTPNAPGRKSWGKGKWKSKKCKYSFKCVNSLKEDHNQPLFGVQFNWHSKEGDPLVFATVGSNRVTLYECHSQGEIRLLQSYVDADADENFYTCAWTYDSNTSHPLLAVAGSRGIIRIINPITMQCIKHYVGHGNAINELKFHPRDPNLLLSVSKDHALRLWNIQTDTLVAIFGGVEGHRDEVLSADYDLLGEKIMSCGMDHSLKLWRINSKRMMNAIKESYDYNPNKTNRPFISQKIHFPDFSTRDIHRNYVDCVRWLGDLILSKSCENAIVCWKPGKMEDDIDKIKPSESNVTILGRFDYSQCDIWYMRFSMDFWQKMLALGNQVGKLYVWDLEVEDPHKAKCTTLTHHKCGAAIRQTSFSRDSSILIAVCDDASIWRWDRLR

Kd: 8.82 µM
Substance: Jarid2 K116me3 peptide 114-118 (from UniProt Q92833)
